Test results: patent publication US20240043567A1 (published 2024)

Target: QP3732 (Her2M2-Fc)
Assay: ELISA

B1: pertuzumab (antibody, V domains shown)
VH: EVQLVESGGGLVQPGGSLRLSCAASGFTFTDYTMDWVRQAPGKGLEWVADVNPNSGGSIYNQRFKGRFTLSVDRSKNTLYLQMNSLRAEDTAVYYCARNLGPSFYFDYWGQGTLVTVSS
VL: DIQMTQSPSSLSASVGDRVTITCKASQDVSIGVAWYQQKPGKAPKLLIYSASYRYTGVPSRFSGSGSGTDFTLTISSLQPEDFATYYCQQYYIYPYTFGQGTKVEIK
With B1 the EC50 was 0.0307 µg/mL.
